One series concerns the target T1, GST-BEE2 (Arabidopsis thaliana, UniProt Q93VJ4 1-304).
T1 sequence: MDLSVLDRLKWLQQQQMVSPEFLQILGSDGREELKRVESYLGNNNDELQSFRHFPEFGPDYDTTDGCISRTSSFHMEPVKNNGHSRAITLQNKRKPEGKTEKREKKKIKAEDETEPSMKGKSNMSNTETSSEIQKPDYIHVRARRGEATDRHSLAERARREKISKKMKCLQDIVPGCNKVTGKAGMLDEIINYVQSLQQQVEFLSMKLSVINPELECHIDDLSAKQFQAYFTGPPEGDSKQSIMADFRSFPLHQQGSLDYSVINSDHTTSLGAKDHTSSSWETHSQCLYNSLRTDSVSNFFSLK
Kind of series: EMSA; 1000x cold probe eliminated the shift; 10 mM Tris pH 7.5, 50 mM KCl, 5 mM MgCl2, 1 mM DTT, 2.5% glycerol, 0.5% NP-40, 50 ng poly(dI-dC), 25 fmol probe in 20 ul, room temperature, 45 min; 6% native PAGE. Particulars: protein: recombinant; tags: GST (N-term, pGEX4T1); chain copies: 2; label: 5' biotin; blunt. In general terms: In EMSA bound probe runs differently from free probe, usually more slowly.

A further series deals with T2, GST-HBI1 (Arabidopsis thaliana, UniProt Q9ZPW3 1-337).
T2 sequence: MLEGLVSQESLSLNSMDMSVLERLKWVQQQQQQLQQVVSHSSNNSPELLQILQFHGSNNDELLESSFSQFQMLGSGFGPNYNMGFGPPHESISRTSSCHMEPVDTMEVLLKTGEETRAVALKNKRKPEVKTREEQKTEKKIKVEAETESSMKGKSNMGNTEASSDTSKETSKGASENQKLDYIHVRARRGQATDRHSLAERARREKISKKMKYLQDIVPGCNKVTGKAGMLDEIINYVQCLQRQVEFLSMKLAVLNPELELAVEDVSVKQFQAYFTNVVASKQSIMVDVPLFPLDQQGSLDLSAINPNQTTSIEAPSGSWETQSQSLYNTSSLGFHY
The series is described as above. The conditions noted are these: protein: recombinant; tags: GST (N-term, pGEX4T1); chain copies: 2; label: 5' biotin; blunt.

B1: GASA6 promoter Probe 1 (dsDNA)
DNA 1: CAATTTTTAATCACAAATGCTATTTTATTGGACGACC
DNA 2: GGTCGTCCAATAAAATAGCATTTGTGATTAAAAATTG
Take B1: the binding result with GST-BEE2 and in the series with GST-HBI1 was “binds” in each case.

B2: GASA6 promoter Probe 2 (dsDNA)
DNA 1: GTCTCCCATGTGAGTGCACATGGAGTTATG
DNA 2: CATAACTCCATGTGCACTCACATGGGAGAC
B2: the binding result in the series with GST-BEE2 and in the series with GST-HBI1 was “binds” each time.

The record behind these values is paper PMC8219041, “A transcriptional hub integrating gibberellin–brassinosteroid signals to promote seed germination in Arabidopsis”.
